The source of these data is patent US4587340A, “Biopterin analogs” (Burroughs Wellcome Co., priority 1984, dated 1986).

Broadly, the Km is the concentration of substrate that gives half-maximal velocity.

Substrate in data set [1]: C[C@H](O)[C@H](O)[C@H]1CNc2nc(N)[nH]c(=O)c2N1
The experiment in a line: purified protein, by the assay type.

Substrate in data set [2]: COCC1CNc2nc(N)[nH]c(=O)c2N1
The experiment in a line: Dihydropteridine reductase assay. Type of data set: biochemical. The note with it: other: quinonoid dihydro form of the pterin. As to the method:
Dihydropteridine reductase was assayed by the method of Craine, et al., (J. Biol. Chem., 247, 6082 (1972)).

Substrate in data set [3]: COCC1CNc2nc(N)[nH]c(=O)c2N1
The experiment in a line: Tryptophan hydroxylase cofactor assay. Type of data set: biochemical.

Substrate in data set [4]: C[C@H](O)[C@H](O)[C@H]1CNc2nc(N)[nH]c(=O)c2N1
Description: cells, lysate or membranes named.

Substrate in data set [5]: COCC1CNc2nc(N)[nH]c(=O)c2N1
The experiment in a line: Phenylalanine hydroxylase cofactor assay. The data set is classed as biochemical. The conditions noted are these: other: rat liver enzyme.

B1: Dihydropteridine reductase (Homo sapiens) (protein)
chain: MAAAAAAGEARRVLVYGGRGALGSRCVQAFRARNWWVASVDVVENEEASASIIVKMTDSFTEQADQVTAEVGKLLGEEKVDAILCVAGGWAGGNAKSKSLFKNCDLMWKQSIWTSTISSHLATKHLKEGGLLTLAGAKAALDGTPGMIGYGMAKGAVHQLCQSLAGKNSGMPPGAAAIAVLPVTLDTPMNRKSMPEADFSSWTPLEFLVETFHDWITGKNRPSSGSLIQVVTTEGRTELTPAYF
Consider B1, for which the Michaelis-Menten constant (Km) turned out to be 1.8 µM in data set [1] (other: quinonoid dihydro form of the pterin) and 7 µM in data set [2].

B2: Tryptophan hydroxylase (Rattus norvegicus) (protein)
chain: MQPAMMMFSSKYWARRGLSLDSAVPEEHQILGGLTQNKATASKSEDKRSGKDTSESSKTAVVFSLKNEVGGLVRALRLFQEKHVNMLHIESRRSRRRSSEVEIFVDCECGKTEFNELIQLLKFQTTIVTLNPPDNIWTEEEELEDVPWFPRKISELDRCSHRVLMYGTELDADHPGFKDNVYRQRRKYFVDVAMGYKYGQPIPRVEYTEEETKTWGVVFRELSKLYPTHACREYLKNFPLLTKYCGYREDNVPQLEDVSMFLKERSGFTVRPVAGYLSPRDFLAGLAYRVFHCTQYVRHGSDPLYTPEPDTCHELLGHVPLLADPKFAQFSQEIGLASLGASDEDVQKLATCYFFTIEFGLCKQEGQLRAYGAGLLSSIGELKHALSDKACVKAFDPKTTCLQECLITTFQDAYFVSESFEEAKEKMRDFAKSITRPFSVYFNPYTQSIEILKDTRSIENVVQDLRSDLNTVCDALNKMNQYLGI
notes: The preparation of tryptophan hydroxylase was a crude 30,000xg supernatant; from tissue
B2: the figures for the Km in data set [3] and in data set [4] were 103 µM and 82 µM, respectively.

B3: Phenylalanine hydroxylase (Rattus norvegicus) (protein)
chain: MAAVVLENGVLSRKLSDFGQETSYIEDNSNQNGAISLIFSLKEEVGALAKVLRLFEENDINLTHIESRPSRLNKDEYEFFTYLDKRTKPVLGSIIKSLRNDIGATVHELSRDKEKNTVPWFPRTIQELDRFANQILSYGAELDADHPGFKDPVYRARRKQFADIAYNYRHGQPIPRVEYTEEEKQTWGTVFRTLKALYKTHACYEHNHIFPLLEKYCGFREDNIPQLEDVSQFLQTCTGFRLRPVAGLLSSRDFLGGLAFRVFHCTQYIRHGSKPMYTPEPDICHELLGHVPLFSDRSFAQFSQEIGLASLGAPDEYIEKLATIYWFTVEFGLCKEGDSIKAYGAGLLSSFGELQYCLSDKPKLLPLELEKTACQEYSVTEFQPLYYVAESFSDAKEKVRTFAATIPRPFSVRYDPYTQRVEVLDNTQQLKILADSINSEVGILCNALQKIKS
notes: Phenylalanine hydroxylase was prepared from rat liver using hydrophobic chromatography; from tissue; host or cells: rat liver
As to B3, the Km is 7.9 µM in data set [1] (other: rat liver enzyme) and 12.9 µM in data set [5].
